Test results taken from patent US20140255415A1 (Novartis, published 2014).

Experiments:
[1] = molecular target: human LINGO-1 expressed on CHO-K1 cells (CHO-K1-hLINGO-1) (human) (UniProt Q96FE5); assay: apparent KD, FACS saturation binding on CHO-K1-hLINGO-1 cells, IgG4 format
[2] = molecular target: T1, human LINGO-2 expressed on CHO-K1 cells (CHO-K1-hLINGO-2) (human, UniProt Q7L985 26-606); assay: apparent KD, FACS saturation binding on CHO-K1-hLINGO-2 cells, IgG4 format
T1 construct: range 26-606; not shown: 2 amino acid residue linker
T1 sequence (looked up): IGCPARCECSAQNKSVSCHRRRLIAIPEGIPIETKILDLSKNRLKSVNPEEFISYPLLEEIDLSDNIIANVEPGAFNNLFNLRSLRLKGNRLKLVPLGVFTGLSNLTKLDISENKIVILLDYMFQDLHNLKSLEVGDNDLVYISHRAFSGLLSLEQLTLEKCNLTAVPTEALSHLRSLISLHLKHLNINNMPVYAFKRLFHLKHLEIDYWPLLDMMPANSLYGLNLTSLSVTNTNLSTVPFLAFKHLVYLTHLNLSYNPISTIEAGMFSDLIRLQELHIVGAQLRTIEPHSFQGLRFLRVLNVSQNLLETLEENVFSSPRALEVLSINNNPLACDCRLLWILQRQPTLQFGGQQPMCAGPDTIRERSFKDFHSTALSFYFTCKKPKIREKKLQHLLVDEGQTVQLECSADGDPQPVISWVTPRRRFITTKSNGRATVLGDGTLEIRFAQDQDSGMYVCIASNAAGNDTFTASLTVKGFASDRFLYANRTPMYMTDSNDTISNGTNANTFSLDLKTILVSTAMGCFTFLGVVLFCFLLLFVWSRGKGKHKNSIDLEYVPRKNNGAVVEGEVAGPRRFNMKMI

[3] = molecular target: T2, rat LINGO-1 expressed on CHO-K1 cells (CHO-K1-rLINGO-1) (rat, UniProt A0A8I5ZPI2 34-614); assay: apparent KD, FACS saturation binding on CHO-K1-rLINGO-1 cells, IgG4 format
T2 construct: range 34-614; not shown: 2 amino acid residue linker
T2 sequence: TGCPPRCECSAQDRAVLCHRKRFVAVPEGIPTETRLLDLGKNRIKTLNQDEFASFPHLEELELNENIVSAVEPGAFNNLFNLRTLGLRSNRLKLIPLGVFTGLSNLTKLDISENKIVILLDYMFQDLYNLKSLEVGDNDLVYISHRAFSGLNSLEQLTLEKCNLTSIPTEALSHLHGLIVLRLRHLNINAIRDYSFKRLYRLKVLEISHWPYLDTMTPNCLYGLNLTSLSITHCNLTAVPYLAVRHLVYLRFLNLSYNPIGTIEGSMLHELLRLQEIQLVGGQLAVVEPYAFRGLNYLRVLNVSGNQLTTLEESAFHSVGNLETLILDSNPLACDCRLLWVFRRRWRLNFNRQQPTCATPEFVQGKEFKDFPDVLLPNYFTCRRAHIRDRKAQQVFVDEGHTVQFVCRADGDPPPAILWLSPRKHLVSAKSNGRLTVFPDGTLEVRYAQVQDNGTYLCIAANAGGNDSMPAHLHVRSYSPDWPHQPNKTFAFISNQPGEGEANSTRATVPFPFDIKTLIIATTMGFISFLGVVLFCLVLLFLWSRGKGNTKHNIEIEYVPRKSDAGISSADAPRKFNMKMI
Description: (§1) Cell based affinity of anti-LINGO-1 specific antibodies is determined by FACS saturation binding experiments. The determination of the apparent KD values is carried out identical to the procedure described above using anti-LINGO-1 Fab antibodies.
(§2) In detail, CHO-K1-hLINGO-1, CHO-K1-cmLINGO-1 or CHO-K1-rLINGO-1 are detached from culture flasks by versene, washed with FACS buffer and resuspended in FACS buffer. Purified anti-LINGO-1 IgG4s are serially diluted in FACS buffer and spread into round bottom 96-well microtiter plates (NUNC™, Wiesbaden, Germany). For each concentration, duplicate wells are incubated with 1.25×10⁴ cells for 30-60 min on ice in a total volume of 100 μl. […] Using this assay the following apparent KD values can be determined (Table 3).

[4] = molecular target: T3, cynomolgus monkey LINGO-1 expressed on CHO-K1 cells (CHO-K1-cmLINGO-1) (cynomolgus monkey, UniProt Q9N008 34-614); assay: apparent KD, FACS saturation binding on CHO-K1-cmLINGO-1 cells, IgG4 format
T3 construct: range 34-614; also called Cynomolgus LINGO-1; not shown: 2 amino acid residue linker
T3 sequence (looked up): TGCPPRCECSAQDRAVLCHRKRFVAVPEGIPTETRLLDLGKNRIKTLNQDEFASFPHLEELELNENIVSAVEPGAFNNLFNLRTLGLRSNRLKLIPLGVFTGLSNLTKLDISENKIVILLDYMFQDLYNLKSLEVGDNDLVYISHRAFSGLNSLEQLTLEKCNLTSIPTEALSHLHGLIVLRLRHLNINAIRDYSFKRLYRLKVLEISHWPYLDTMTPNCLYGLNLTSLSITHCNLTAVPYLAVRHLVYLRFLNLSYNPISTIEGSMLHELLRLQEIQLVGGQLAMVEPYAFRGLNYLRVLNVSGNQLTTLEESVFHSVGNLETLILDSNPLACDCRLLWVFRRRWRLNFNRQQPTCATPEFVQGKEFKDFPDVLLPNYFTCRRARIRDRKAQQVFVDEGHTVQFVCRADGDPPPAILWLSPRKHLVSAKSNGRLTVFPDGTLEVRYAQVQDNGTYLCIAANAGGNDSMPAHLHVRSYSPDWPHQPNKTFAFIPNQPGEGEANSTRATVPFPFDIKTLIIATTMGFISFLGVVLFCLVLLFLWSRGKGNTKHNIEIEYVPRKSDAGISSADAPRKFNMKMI
Description: as §1, §2

[5] = molecular target: human LINGO-1 expressed on CHO-K1 cells (CHO-K1-hLINGO-1) (human) (UniProt Q96FE5); assay: FACS saturation binding on CHO-K1-hLINGO-1 cells, IgG4, with 50% human CSF against control
[6] = molecular target: human LINGO-1 expressed on CHO-K1 cells (CHO-K1-hLINGO-1) (human) (UniProt Q96FE5); assay: apparent KD, FACS saturation binding on CHO-K1-hLINGO-1 cells, IgG4 pre-incubated in FACS buffer
[7] = molecular target: human LINGO-1 expressed on CHO-K1 cells (CHO-K1-hLINGO-1) (human) (UniProt Q96FE5); assay: apparent KD, FACS saturation binding on CHO-K1-hLINGO-1 cells, IgG4, with 50% human cerebro-spinal fluid
[8] = molecular target: human LINGO-1 expressed on CHO-K1 cells (CHO-K1-hLINGO-1) (human) (UniProt Q96FE5); assay: apparent KD, FACS saturation binding on CHO-K1-hLINGO-1 cells, IgG4 pre-incubated in FACS buffer + 2.6% BSA
[9] = molecular target: human LINGO-1 expressed on CHO-K1 cells (CHO-K1-hLINGO-1) (human) (UniProt Q96FE5); assay: ratio of apparent KDs, FACS saturation binding on CHO-K1-hLINGO-1 cells, IgG4, without against with 50% human CSF
[10] = molecular target: human LINGO-1 expressed on CHO-K1 cells (CHO-K1-hLINGO-1) (human) (UniProt Q96FE5); assay: apparent KD, FACS saturation binding on CHO-K1-hLINGO-1 cells, IgG4 pre-incubated in FACS buffer + 50% human serum
[11] = molecular target: human LINGO-1 expressed on CHO-K1 cells (CHO-K1-hLINGO-1) (human) (UniProt Q96FE5); assay: apparent KD, FACS saturation binding on CHO-K1-hLINGO-1 cells, IgG4, without 50% human cerebro-spinal fluid (control)

Kd [1]: 0.29 nM | Kd [2]: 25.9 nM | Kd [3]: 0.98 nM | Kd [4]: 0.62 nM | reduction in affinity [5]: 73% | Kd [6]: 0.28 nM | Kd [7]: 1.57 nM | Kd [8]: 0.19 nM | App. KD ratio w/o CSF:w/ CSF [9]: 0.27 | Kd [10]: 0.27 nM | Kd [11]: 0.43 nM
B1: anti-LINGO-1 IgG4 antibody 4784 (antibody, V domains shown)
VH: QVQLKESGPALVKPTQTLTLTCTFSGFSLSSSGVGVGWIRQPPGKALEWLAHIGSDDDKYYSTSLKTRLTISKDTSKNQVVLTMTNMDPVDTATYYCARNQQYGDGYPGYFDYWGQGTLVTVSS
VL: DIELTQPPSVSVAPGQTARISCSGDNIGNYYVYWYQQKPGQAPVLVIYEDTNRPSGIPERFSGSNSGNTATLTISGTQAEDEADYYCQSYDNLHEQVFGGGTKLTVLG
